Source: PMC10269165 (Antimicrobial Agents and Chemotherapy, 2023)

What was measured:
[1] = test system: LacZ-complemented pem1Δ/pem2Δ S. cerevisiae; test: Growth inhibition of complemented yeast; type: cell-based, Saccharomyces cerevisiae; conditions: medium with choline
Experimental: (§1) To determine the effect of PMT inhibitors on the growth of PMT- and LacZ-complemented pem1Δpem2Δ S. cerevisiae, the yeast cells were first starved of choline as described above, and the cells were diluted to an OD600 of ~0.6. The PMT-complemented yeast cells were cultured in SG medium (3.4g/L yeast nitrogen base without amino acids, 2% galactose, 30 mg/L histidine, 100 mg/L leucine, 100 mg/L adenine, and 50 mg/L tryptophan) supplemented with 1 mM ethanolamine hydrochloride, while the LacZ-complemented yeast cells were cultured in SG medium supplemented with 1 mM choline chloride. Compounds that depicted cross-inhibitory activity against PMT proteins in vitro were added at various concentrations to the cultures. As a negative control, DMSO (at a final concentration not exceeding 2% [vol/vol]) was added to yeast cultures designated control cultures. The cultures were incubated at 30°C with shaking at 275 rpm for 4 days. On a daily basis during the course of culture, 200-μL portions of culture aliquots were taken, and their OD600s were measured using a microplate reader. In preliminary work, we had observed that the growth of PMT- and LacZ-complemented pem1Δpem2Δ S. cerevisiae plateaued at 3 to 4 days of culture. Therefore, to determine the inhibitory effect of nematode PMT inhibitors on the growth of PMT- and LacZ-complemented pem1Δpem2Δ S. cerevisiae, measurements taken on day 3 were used. The results were presented as percentage of growth rate using the following formula: PGR = growth rate (plus inhibitor)/growth rate (minus inhibitor) × 100 where the percent growth rate (PGR) is the growth rate of inhibitor-treated PMT- or LacZ- complemented Pem1Δpem2Δ S. cerevisiae, considering the growth rate of untreated PMT- or LacZ- complemented Pem1Δpem2Δ S. cerevisiae is 100%; the growth rate = ΔA600^Day 3/ΔA600^Day 0; ΔA600^Day 0 is the absolute value of A600 of PMT- or LacZ- complemented pem1Δ/pem2Δ S. cerevisiae at day 0, which equals the A600 of the culture minus the A600 of the growth medium only; ΔA600^Day 3 is the absolute value of the A600 of PMT- or LacZ complemented pem1Δ/pem2Δ S. cerevisiae at day 3, which equals the A600 of the culture at day 3 minus the A600 of growth medium only; the growth rate (plus inhibitor) is the growth rate of PMT- or -LacZ complemented pem1Δpem2Δ S. cerevisiae in the presence of test compound; and the growth rate (minus inhibitor) is the growth rate of the PMT- or LacZ complemented pem1Δ/pem2Δ S. cerevisiae in the absence of test compound, but with a volume of DMSO equal to that of compound added in the treated culture. The dose-response curves were generated with GraphPad Prism software and IC50 concentrations of the compounds in PMT- and LacZ-complemented yeast cells derived.

[2] = test system: PMT-complemented mutant yeast; test: Growth inhibition of complemented yeast (statement on PMT-complemented strains together); type: cell-based, Saccharomyces cerevisiae; conditions: various concentrations
Experimental: as §1

AcPMT1 = AcPMT1 (Ancylostoma duodenale, UniProt A0A0C2DEB6); test: PMT enzyme kinetics, fluorescence methyltransferase assay; type: biochemical; conditions: on phosphoethanolamine
Experimental: (§2) We customized a commercial methyltransferase HT activity assay kit (ENZO) for use of recombinant PMT proteins as enzymes, S-adenosyl-L-methionine (SAM) as the methyl donor, and PE as the substrate, as reported previously ([27]). […] Briefly, the reaction mixture contained 2.5 μL of the kit SAM-free methyltransferase reaction buffer, 3 μL of 10 mM PE solution (pH 7.5), 15 μL of 1 mM SAM solution (pH 7.8), and 1× transferase assay buffer to a final volume of 25 μL. Various concentrations (25-μL total volume) of recombinant PMT protein were added to reactions.
(§3) To determine the enzyme kinetic parameters on SAM, fixed concentrations of PMT recombinant proteins (between 15 and 100 ng/μL, depending on the derived optimal concentration) and PE (200 μM) were used in the reactions, with various concentrations of SAM (0 to 160 μM). On the other hand, to determine the enzyme kinetic parameters on PE, fixed concentrations of PMT recombinant proteins (between 15 and 100 ng/μL, depending on the derived optimal concentration) and SAM (100 μM) were used, with various concentrations of PE (0 to 250 μM).
(§4) For normalization, instead of purified protein, 25 μL of 100 μM S-(5′-adenosyl)-L-homocysteine (SAH) as a positive control, 25 μL of dialysis buffer as a negative control, and 25 μL of 1× transferase assay buffer as a blank control were added to the respective reaction mixtures. The reactions were prepared in triplicate wells using black flat-bottomed 96-well plates. Detection buffer (100 μL) was added into each reaction, yielding a final reaction volume of 150 μL. The plates were covered in aluminum foil and incubated at room temperature with shaking for 30 min, and fluorescence read at 380EX/520EM using a SpectraMax Gemini EM microplate reader (Molecular Devices). Sample readouts were normalized with positive and negative controls.

AsPMT = AsPMT (Ascaris suum, UniProt F1L4B9); test: as above; type: biochemical; conditions: on phosphoethanolamine
Experimental: as §2, §3, §4

DvPMT1 = DvPMT1 (Dictyocaulus viviparus, UniProt A0A0D8Y714); test: as above; type: biochemical; conditions: on phosphoethanolamine
Experimental: as §2, §3, §4

HcPMT1 = HcPMT1 (Haemonchus contortus, UniProt U5HK46); test: as above; type: biochemical; conditions: on phosphoethanolamine
Experimental: as §2, §3, §4

OdPMT = OdPMT (Oesophagostomum dentatum, UniProt A0A0B1TAL6); test: as above; type: biochemical; conditions: on phosphoethanolamine
Experimental: as §2, §3, §4

TcPMT = TcPMT (Toxocara canis, UniProt A0A0B2VTW9); test: as above; type: biochemical; conditions: on phosphoethanolamine
Experimental: as §2, §3, §4

[3] = substrate: C[S+](CC[C@H](N)C(=O)[O-])C[C@H]1O[C@@H](n2cnc3c(N)ncnc32)[C@H](O)[C@@H]1O; test: as above; type: biochemical, Ancylostoma duodenale; conditions: other: on S-adenosyl-L-methionine
Experimental: as §2
(§5) To determine the enzyme kinetic parameters on SAM, fixed concentrations of PMT recombinant proteins (between 15 and 100 ng/μL, depending on the derived optimal concentration) and PE (200 μM) were used in the reactions, with various concentrations of SAM (0 to 160 μM). […]
as §4, with “The reactions were prepared in triplicate wells using black flat-bottomed 96-well plates. Detection buffer (100 μL) was added into each reaction, yielding a final reaction volume of 150 μL.” left out

[4] = substrate: C[S+](CC[C@H](N)C(=O)[O-])C[C@H]1O[C@@H](n2cnc3c(N)ncnc32)[C@H](O)[C@@H]1O; test: as above; type: biochemical, Toxocara canis; conditions: other: on S-adenosyl-L-methionine
Experimental: as §2, §3, §4

[5] = substrate: C[S+](CC[C@H](N)C(=O)[O-])C[C@H]1O[C@@H](n2cnc3c(N)ncnc32)[C@H](O)[C@@H]1O; test: as above; type: biochemical, Oesophagostomum dentatum; conditions: other: on S-adenosyl-L-methionine
Experimental: as §2, §3, §4

[6] = substrate: C[S+](CC[C@H](N)C(=O)[O-])C[C@H]1O[C@@H](n2cnc3c(N)ncnc32)[C@H](O)[C@@H]1O; test: as above; type: biochemical, Dictyocaulus viviparus; conditions: other: on S-adenosyl-L-methionine
Experimental: as §2, §3, §4

[7] = substrate: C[S+](CC[C@H](N)C(=O)[O-])C[C@H]1O[C@@H](n2cnc3c(N)ncnc32)[C@H](O)[C@@H]1O; test: as above; type: biochemical, Haemonchus contortus; conditions: other: on S-adenosyl-L-methionine
Experimental: as §2, §5
as §4, with “The reactions were prepared in triplicate wells using black flat-bottomed 96-well plates. Detection buffer (100 μL) was added into each reaction, yielding a final reaction volume of 150 μL.” left out

Chain of AsPMT (F1L4B9 entry or part of it): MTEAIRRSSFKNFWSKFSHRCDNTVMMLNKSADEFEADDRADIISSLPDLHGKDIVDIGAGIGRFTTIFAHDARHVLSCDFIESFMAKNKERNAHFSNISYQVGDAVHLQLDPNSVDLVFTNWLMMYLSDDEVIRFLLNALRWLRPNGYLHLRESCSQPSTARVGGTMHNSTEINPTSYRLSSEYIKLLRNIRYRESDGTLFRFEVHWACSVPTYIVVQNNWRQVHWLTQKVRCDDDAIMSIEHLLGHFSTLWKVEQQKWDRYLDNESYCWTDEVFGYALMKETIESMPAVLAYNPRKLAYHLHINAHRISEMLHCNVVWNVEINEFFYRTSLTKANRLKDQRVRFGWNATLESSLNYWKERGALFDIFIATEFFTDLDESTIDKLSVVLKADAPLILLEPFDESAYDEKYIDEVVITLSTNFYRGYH

In the case of CC[C@H]1NC(=O)[C@@H](NC(=O)c2ncccc2O)[C@@H](C)OC(=O)[C@H](c2ccccc2)NC(=O)[C@@H]2CC(=O)CCN2C(=O)[C@H](Cc2ccccc2)N(C)C(=O)[C@@H]2CCCN2C1=O [NSC177858], the “effect on LacZ-expressing mutant yeast” value [1] is reported as “no or negligible inhibitory effect” and the “effect on the growth of PMT-complemented mutant yeast” value [2] is reported as “concentration-dependent inhibitory effect”.

With NCCOP(=O)(O)O [phosphoethanolamine] the kcat (AcPMT1) was 7,071.00 ± 1,141.00 min^−1, the Km (AsPMT) was 99.9 ± 36.6 µM and the kcat (AsPMT) was 3.2383 ± 0.49 s⁻¹. The Km (DvPMT1) was 308 ± 41.7 µM, the kcat (DvPMT1) was 16.113 ± 1.61 s⁻¹ and the Km (HcPMT1) was 73.4 ± 54.9 µM. The kcat (HcPMT1) was 1,066.30 ± 72.70 min^−1, the Km (OdPMT) was 81 ± 12.8 µM and the kcat (OdPMT) was 5.5833 ± 0.3603 s⁻¹. The Km (TcPMT) was 85 ± 77.8 µM and the kcat (TcPMT) was 10.412 ± 3.6983 s⁻¹.

B1: AcPMT1 (Ancylostoma duodenale) (protein)
chain: MEERSVDLVFTNWLMMYLSDREVIEFLFNAMRWLRADGYMHLRESCSEPSTGRAKSSTMHSNTDSNPTHYRFSSLYIKLLRAIRYRDNDGKVWRFDVQWSCSVPTYIKRSNNWRQVHWLTKKVSADGDDETTINDLLKLFSQTWYTEQVAWDAKLDNEKYVWTDKIFSNAIDNEVVPKNSTAYVFTPRKMSPYLHINSHLLAEKFTCNVWNVEMNENFYRTSLTKANNQKDQRVRFGWNESLASSIDYWTQRDASFDCLIGTELLSTNGDESIKRIASIMKPEAKIVLLEPVDDVAEQAIKERMASCGFKNISVVDVTEECKAAEAAYANDHNLAFLFIEL
B1 was tested, and the Km [3] was 27.33 ± 3.58 µM and the kcat/Km [3] was 1.98e+06 M⁻¹ s⁻¹.

B2: TcPMT (Toxocara canis) (protein)
chain: MPRLNQKAKTFRDFLDTTQYTDEGIRAYEWIFGENFISPGGYNENLLVLKRLGELKPDSRMLDIGVGIGGGARQAAKEFGLLVLGIDISANMLSIAMDRLQVEKDTRIRYQICNAVDYQFPSNSFDYIVSRDGLHHNEHIDIVMKNIFKWLKPGGKALITIYGKGHGAPKTKFQAYVENRKYHLKTLEQMVQVTKDAGFENVQGTNLTKRLRDILIEERTRALARKGRFLEDFSEETFNSLLEGWNDKIDFIDDDNQTWLQIIATKPL
B2 was tested, and the Km [4] was 20.31 ± 2.23 µM, the Vmax [4] was 1.08 ± 0.0324 µmol/min/mg and the kcat [4] was 10.9 ± 0.327 s⁻¹. It also gave a kcat/Km [4] of 539000 M⁻¹ s⁻¹.

B3: OdPMT (Oesophagostomum dentatum) (protein)
chain: MIFQKRFTTVLAETARWVHSTDFIESFIAKNQERNAHLGNISYQIGDAVHLQMDEKSVDLVFTNWLMMYLSDREVIEFLFNAMRWLRADGYMHLRESCSEPSTGRSKSATMHTSAEANPTHYRFSSLYIKLLRALRYQDSDGKVWRFDVQWSCSVPTYIRFFSETWRAEQIAWDAKLDKEQYVWTDKIFSNVLDSAVVPKNSTAYVFTPRRRSPYLHVNSHLLADKFTCNVWNVELNENFYRTSLTKANNQKDQRVRFGWNETLASSIDYWTQRDGSFDCLIATELLSTSDDESIKSIASIMKPEAKCVLLEPVDEVNEAVIKARMSSCGFKNVSVMDVTEDCKAAEAAYASDHNLQIDPSNCSYVLINASL
In the case of B3, the Km [5] is reported as 48.95 ± 7.07 µM, the Vmax [5] is reported as 3.13 ± 0.204 µmol/min/mg and the kcat [5] is reported as 45.4 ± 2.96 s⁻¹. The kcat/Km [5] was 927000 M⁻¹ s⁻¹.

B4: DvPMT1 (Dictyocaulus viviparus) (protein)
chain: MSQGMRHADAVIYGEYDNGRRMKENELKGEHIKNYRTTYDENSFNNTMAVEVRRDLFKTFWDRYSDKPDTNSMMLNHTANDLDASDRADILSSLPHLGNKDVVDIGAGIGRFTTVLANTARWVHSTDFIESFIAKNQERNAHLGNISYQIGDAVNLQMNERSVDLVFTNWLMMYLSDHEVIEFLFNAMRWLRPDGYLHLRESCSEPSTACSKTATMHSSAEANPTHYRFSSLYIKLLRTIRYRDNSGKLWKFDVQWSCSVPTYIQRSNNWRQVHWLTRKVPANNGDTDTSISLLLNLFSQIWPAEQVEWDLKLNIESYVWTDRVFSNAINDEVVPRNGTALVFTPRKRSPYLHVNSHLLAEKFTCNVWTVETNEYYYRTSLTKANHEKNHRVRFGWNESLTSSIDYWSQRDASFDCLISTELLSTNSDDEIKRITRMIGCGFKHVNILDVTNDSRTAEVMFYSEHSINAEPLGCTFLLISATL
Work on B4 yielded a Km [6] of 35.02 ± 5.05 µM, a Vmax [6] of 0.445 µmol/min/mg and a kcat [6] of 3.96 ± 0.214 s⁻¹. The kcat/Km [6] was 113000 M⁻¹ s⁻¹.

B5: HcPMT1 (Haemonchus contortus) (protein)
chain: MTAEVRRDSFKTFWDKYSDKPDTNSMMLNQTAQDLEASDRADILSSLPHLTNKDVVDIGAGIGRFTTVLAETARWVLSTDFIESFIEKNQERNAHMGNISYQIGDAVHLQMDEKSVDLVFTNWLMMYLSDREVIEFLLNAMRWLRADGYIHLRESCSEPSTGRLKTATMHSAVDANPTHYRFSSLYIKLLRAIRYRDSDGKMWKFDVQWSCSVPTYIRRCNNWRQVHWLTKKVPAVGDEETSVDDLLNLFSQIWPAEQKTWDEKLDNEKYSWTDKIFSNAIDDEVVPKNSTAYVFTPRQRSPFLHVNSHLLAEKFTCNVWNVETKEYLYRTSLTKANNQKDQRVRFGWNESLSSSIDYWNQRDASFDCMVATELLATCDDESINSIASIMKPEAKVVLLEPVSGIDETSVRQRMTTCGFKNITIVDVTQESLNAEVSFIKDHNLDVELSGCNYLLIKASL
B5 was tested, and the Km [7] was 18.34 ± 3.80 µM and the kcat/Km [7] was 3.91e+06 M⁻¹ s⁻¹.
